Measurements: patent US20090053230A1 (Genentech, published 2009)

What was measured:
[1] = biological target: T1, full-length human OX40L expressed on CHO cells (human, UniProt P23510 1-183); experiment: Scatchard analysis, iodinated antibody on OX40L-expressing CHO cells
T1 construct: whole, on cells; also called CHO-OX40L cells; OX40L-expressing CHO cells
T1 sequence (looked up): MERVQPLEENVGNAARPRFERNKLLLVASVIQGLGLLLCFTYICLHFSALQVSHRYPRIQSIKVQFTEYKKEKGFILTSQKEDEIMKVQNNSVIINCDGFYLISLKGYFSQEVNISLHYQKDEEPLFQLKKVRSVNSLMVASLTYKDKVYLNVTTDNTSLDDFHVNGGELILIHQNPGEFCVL
Method: Scatchard binding experiments were performed to determine if anti-OX40L mAbs 8E12 and 13G5 compete with each other for binding similar or overlapping epitopes on CHO cells expressing human OX40L, and to determine the binding affinity of the antibodies. 50 ug of anti-OX40L murine monoclonal antibodies 8E12 and 13G5 were iodinated using a standard lactoperoxidase method. Antibodies 8E12 and 13G5 were serially diluted 1:4 in media buffer (Dubeccos F12:DMEM, 1% bovine serum albumin, 0.05% sodium azide and 25 mM Hepes buffer pH 7.2) starting at an initial concentration of 200 nM. Two sets of dilution series (50 uL) were performed in duplicate in a 96 microwell plate. Wells from each set of dilutions received 50 uL of either iodinated 8E12 or 13G5 (0.25 nM final concentration). The plate was mixed and then the entire mixture was transferred to a 96 well tissue culture plate containing 30,000 OX40L-expressing CHO cells per well which had been plated out the previous day. The plates were covered and incubated overnight at 4° C. The next day the wells (containing cells) were aspirated and washed twice with media buffer. 200 uL of 1N NaOH was added to each well to lyse the cells, shaken for 10 minute, and then transferred to a 96 well microtube. Each tube was counted in a Wallac gamma scintillation counter. […]

[2] = biological target: T2, mouse OX40L (mouse, UniProt P43488 51-198, limits assumed); experiment: ELISA, plates coated with mouse OX40L, goat anti-mouse Fc-HRP detection
T2 construct: Construct coated on the plate is not described
T2 sequence (looked up): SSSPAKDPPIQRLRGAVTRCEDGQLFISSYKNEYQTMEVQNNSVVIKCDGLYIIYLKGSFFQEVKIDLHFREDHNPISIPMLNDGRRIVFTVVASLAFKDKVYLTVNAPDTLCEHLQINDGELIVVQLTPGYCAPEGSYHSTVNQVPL
Method: (§1) To determine whether Mabs 8E12 and 13G5 bound mouse OX40L, ELISA plates were coated with mouse OX40L. Serial dilutions of 8E12 or 13G5 (0.004-4 ug/ml) were added. Goat anti-mouse Fc-HRP was used for detection. No binding was observed. In a different format, ELISA plates were coated with 8E12 or 13G5. Serial dilutions of mouse OX40L-Flag were added. Biotinylated anti-Flag followed by streptavidin-HRP was used for detection. No binding was observed.

[3] = biological target: T3, recombinant human OX40L-flag polypeptide (human OX40 ligand extracellular domain fused to the flag peptide) (human, UniProt P23510 51-183); experiment: SPR (BIAcore 3000), OX40L-Flag captured by immobilised anti-Flag, IgG as analyte
T3 construct: extracellular domain; Expressed from CHO cells (Genentech); also called human OX40L ECD-Flag polypeptide; human OX40L in solution; not shown: flag peptide
T3 sequence (looked up): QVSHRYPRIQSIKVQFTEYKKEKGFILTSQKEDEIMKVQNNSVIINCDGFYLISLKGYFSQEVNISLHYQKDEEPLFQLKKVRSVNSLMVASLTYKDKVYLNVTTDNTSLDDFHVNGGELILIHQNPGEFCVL
Method: Binding kinetics of mouse anti-OX40L antibodies to human OX40L were measured by surface plasmon resonance using Pharmacia BIAcore® 3000 (BIAcore AB, Uppsala, Sweden) at room temperature (Karlsson et al., 1994; Morton & Myszka, 1998). Anti-Flag antibody (anti-FlagM2, Sigma, St. Louis, Mo.) was immobilized to the sensor chip (CM5) through primary amine groups. A high flow rate was used in order to minimize mass transport effects. The carboxymethylated sensor chip surface matrix was activated by injecting 20 ul of a mixture of 0.025 M N-hydroxysuccinimide and 0.1 M N-ethyl-N′(dimethylaminopropyl) carbodiimide at 5 ul/min. 7 ul of 50 ug/ml anti-Flag in 10 mM sodium acetate, pH 4.5, were injected at 5 ul/min twice. After coupling, unoccupied sites on the chip were blocked by injecting 20 ul of 1M ethanolamine, pH 8.5. The running buffer was PBS containing 0.05% polysorbate 20. 5 ul of 4 ug/ml OX40L-Flag were injected at 30 ul/min to bind […] to the anti-Flag on the chip. For kinetic measurements, two-fold serial dilutions (6.2-50 nM) of mouse […] 8E12 (PUR 9333) and 13G5 (PUR 9306) in running buffer were injected over flow cell for 2 minutes at a flow rate of 30 ul/min and the bound anti-OX40L antibody was allow to dissociate for 20 minutes. […] Data were analyzed using a 1:1 binding model using global fitting. […]

[4] = biological target: T1, full-length human OX40L expressed on …; experiment: cell-based competition ELISA on CHO cells expressing full-length human OX40L; competitor human OX40-IgG, anti-Fc-HRP
Method: (§2) In other experiments, CHO cells expressing full-length human OX40L were grown in 50:50 F12/DMEM medium supplemented with 2 mM L-glutamine, 100 units/ml penicillin, 100 ug/ml streptomycin (supplemented medium), and 5% FBS (Gibco BRL Life Technologies, Gaithersburg, Md.) (growth medium) in a humidified 5% CO₂ incubator at 37° C. Cells were detached from culture plates using Accutase (ICN) and added to 96 well microwell plates at 300,000 cells/well. A mixture of human OX40-IgG and serial dilutions of antibodies in growth medium was added to the plates. After a one-hour incubation on ice, cells were washed by centrifuging the plates and removing the supernatant. Bound human OX40-IgG was detected using anti-Fc-HRP. […] In some experiments, human OX40-IgG-bio was used instead of human OX40-IgG. Bound human OX40-IgG-bio was detected using streptavidin-HRP. Plates were developed and read as described above.

[5] = biological target: T1, full-length human OX40L expressed on …; experiment: cell-based competition ELISA on CHO cells expressing full-length human OX40L; competitor human OX40-IgG-bio, streptavidin-HRP
Method: as §2

[6] = biological target: T4, mouse OX40L-Flag (mouse, UniProt P43488 51-198, limits assumed); experiment: ELISA, plates coated with antibody, serial dilutions of mouse OX40L-Flag, biotinylated anti-Flag and streptavidin-HRP detection
T4 construct: not shown: Flag tag
T4 sequence (looked up): T2 sequence (looked up)
Method: as §1

[7] = biological target: T3, recombinant human OX40L-flag …; experiment: competition ELISA, OX40L ECD-Flag captured by anti-Flag; competitor human OX40-IgG-bio; OX40L ECD-Flag captured on anti-Flag plate; OX40-IgG-bio as competitor
Method: Competition ELISA analysis was conducted as follows to examine binding of anti-OX40L Mabs 8E12 and 13G5 to OX40L in solution, and to examine binding to cell-surface expressed OX40L. In some experiments, maxiSorp 96-well microwell plates (Nunc, Roskilde, Denmark) were coated overnight at 4° C. with 2 ug/ml anti-FlagM2 antibody (Sigma) in 50 mM carbonate buffer, pH 9.6. Plates were washed with PBS containing 0.05% polysorbate 20 and blocked with 0.5% bovine serum albumin, 10 ppm Proclin 300 (Supelco, Bellefonte, Pa.) in PBS at room temperature for 1 h. Plates were washed and 0.5 ug/ml of human OX40L ECD-Flag polypeptide was added. After a one-hour incubation, plates were washed. A mixture of human OX40-IgG-bio and serial dilutions of antibodies in PBS containing 0.5% bovine serum albumin, 0.05% polysorbate 20, 10 ppm Proclin 300 was added. The plates were incubated for 2 h at room temperature and washed. Bound human OX40-IgG-bio was detected by adding streptavidin-HRP (Amdex, Copenhagen, Denmark) followed by 3,3′,5,5′-tetramethyl benzidine (Kirkegaard & Perry Laboratories, Gaithersburg, Md.) as the substrate. […] Absorbance was read at 450 nm on a Titertek stacker reader (ICN, Costa Mesa, Calif.). The titration curves were fit using a four parameter regression curve fitting program (KaleidaGraph, Synergy software, Reading, Pa.). […]

[8] = biological target: T1, full-length human OX40L expressed on …; experiment: competitive radioligand binding on OX40L-expressing CHO cells; antibody titrated against iodinated OX40-Fc (0.25 nM final), overnight at 4 C, gamma counting, 4-parameter fit
Method: Competitive binding experiments were performed to determine if anti-OX40L mAbs 8E12 and 13G5 competed with iodinated OX40-Fc (extracellular domain of OX40 receptor fused to Fc domain) for binding to OX40L expressed on CHO cells. 50 ug of […] was iodinated using a standard lactoperoxidase method. Antibodies 8E12 and 13G5 were serially diluted 1:4 in media buffer (Dubeccos F12:DMEM, 1% bovine serum albumin, 0.05% sodium azide and 25 mM Hepes buffer pH 7.2) starting at an initial concentration of 200 nM. Dilutions (50 uL) were performed in duplicate in a 96 microwell plate. Each well received 50 uL of iodinated […] (0.25 nM final concentration), was mixed and then the entire mixture was transferred to a 96 well tissue culture plate containing 30,000 OX40L-expressing CHO cells per well, which had been plated out the previous day. The plates were covered and incubated overnight at 4° C. The next day the wells (containing cells) were aspirated and washed twice with media buffer. 200 uL of 1N NaOH was added to each well to lyse the cells, shaken for 10 minute, and then transferred to a 96 well microtube. Each tube was counted in a Wallac gamma scintillation counter. The data was collected and plotted using Kaleidagraph. Curves were drawn using a 4-parameter fit.

[9] = biological target: T3, recombinant human OX40L-flag …; experiment: competition ELISA, coated human OX40-IgG as competitor, Flag-tagged OX40L (printed 'OX40-Flag') in solution with antibody dilutions; plate coated with OX40-IgG; Flag-tagged ligand in solution with antibody

B1: mouse anti-human OX40L monoclonal antibody 8E12 (antibody, V domains shown)
VH: QVQLQQPGAELVRPGASVKLSCKASGYTFTSYWLNWVKQRPGQGLEWIVMIDPSDSETHYNQVFKDKATLTVDKSSSTAYMQLSSLTSEDSAVYYCIRGRGNFYGGSHAMEYWGQGTLLTVSS
VL: DILMTQTPLSLPVSLGDQASISCRSSQSIVHGNGNTYLEWHLQKPGQSPKLLIYRVSNRFSGVPDRFSGSGSGTDFTLKINRVEAEDLGVYYCFQGSHVPYTFGGGTKVEIKR
notes: Tested as mouse IgG purified from hybridoma medium by Protein A; also called Mab 8E12; anti-OX40L mab 8E12
With B1 the Kd [1] was 0.92 nM, the binding result [2] was “no binding (tested: 0.004-4 ug/ml)” and the koff [3] was less than 5e-06 s⁻¹. For the same binder, the EC50 [4] was roughly 20 nM, the EC50 [5] was roughly 11 nM and the binding result [6] was “no binding”. For the same binder, the EC50 [7] was roughly 1.4 nM, the “IC50 (read off the curve)” value [8] was 2.5 to 3 nM and the EC50 [9] was roughly 1.9 nM.
